Assay [1] deals with H-Ara h 2/6 (native Ara h 2/6 heated for 15 min to 110°C alone). The assay can be described thus: SEC; Superdex-75 column on an Äkta Basic FPLC, calibrated with gel filtration molecular weight standards; Ara h 2/6 before and after heating for 15 min at 110°C in the presence or absence of glucose. On the technique in general: SEC sorts molecules by how far they enter the pores of the column.

The target in assay [2] is G-Ara h 2/6 (native Ara h 2/6 heated for 15 min to 110°C in the presence of 100 mM glucose). Described as above.

“H-Ara h 2/6 (native Ara h 2/6 heated for 15 min to 110°C alone)” registered a percent of the protein remaining monomeric in assay [1] of 20%.

As to “G-Ara h 2/6 (native Ara h 2/6 heated for 15 min to 110°C in the presence of 100 mM glucose)”, in assay [2], the percent of the protein remaining monomeric is 20%.

These data come from paper PMC3162016.
